Source: patent WO2000075333A1 (dated 2000)

Molecular target: T1, CD20 (human, UniProt P11836 1-297)
T1 construct: whole, on cells; also called CD20 antigen; CD20-positive Ramos cell line
T1 sequence (looked up): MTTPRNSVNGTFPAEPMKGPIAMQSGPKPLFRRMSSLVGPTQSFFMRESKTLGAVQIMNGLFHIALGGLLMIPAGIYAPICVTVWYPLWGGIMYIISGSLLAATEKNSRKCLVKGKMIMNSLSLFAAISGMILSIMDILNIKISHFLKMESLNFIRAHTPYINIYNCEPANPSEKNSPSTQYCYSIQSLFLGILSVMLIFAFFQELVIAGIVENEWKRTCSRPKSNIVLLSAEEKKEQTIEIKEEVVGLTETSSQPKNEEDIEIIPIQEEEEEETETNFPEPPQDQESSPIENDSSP
Test: saturation binding of radiolabeled mAb to Ramos cells (10^7 cells), nonlinear regression, concentrations adjusted for immunoreactivity

B1: B9E9 mAb (antibody, V domains shown)
VH: QVQLVQSGAELVKPGASVKMSCKASGYTFTSYNMHWVKQTPGQGLEWIGAIYPGNGDTSYNQKFKGKATLTADKSSSTAYMQLSSLTSEDSAVYYCARAQLRPNYWYFDVWGAGTTVTVSS
VL: DIVLSQSPAILSASPGEKVTMTCRASSSVSYMHWYQQKPGSSPKPWIYATSNLASGVPARFSGSGSGTSYSLTISRVEAEDAATYYCQQWISNPPTFGAGTKLELK
For B1, the Kd was 9.75 nM.
